Test results from the supplement of paper PMC12855868.

B1: library; numbered along this chain (parent)
chain: MAAAGGARLLRAASAVLGGPAGRWLHHAGSRAGSSGLLRNRGPGGSAEASRSLSVSARARSSSEDKITVHFINRDGETLTTKGKVGDSLLDVVVENNLDIDGFGACEGTLACSTCHLIFEDHIYEKLDAITDEENDMLDLAYGLTDRSRLGCQICLTKSMDNMTVRVPETVADARQSIDVGKTS

Variants of: B1
Assay: scaled log2 fold change in cell abundance, elesclomol vs control (0 = silent mean, 1 = nonsense mean) (scaled log2 ratio); higher = higher viability under elesclomol (loss of FDX1 cuproptosis function)
Details: glucose 10 mM
Experimental: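 Deep mutational scan of full-length human FDX1: a pooled saturation-mutagenesis ORF library (every residue 2-184 mutated to all 19 amino acids plus stop, and silent codons where available) was expressed by lentivirus in FDX1-knockout ABC1 (14 days) or HEK293T (11 days) cells grown with elesclomol (ES) or DMSO control. Variant abundance came from ORF sequencing. The log2 fold change (ES vs control, mean of duplicates) was centred on the silent-variant mean (0) and scaled to the nonsense-variant mean (1). Higher values mean greater viability under ES, i.e. loss of FDX1 function in cuproptosis.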

[1] = with ABC1 FDX1 KO, elesclomol 5 nM, 14 days
[2] = with HEK293T FDX1 KO, elesclomol 40 nM, 11 days
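Also: variant abundance is its share of total variant reads in each endpoint sample, from next-generation sequencing of the integrated ORF PCR-amplified out of genomic DNA.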

| Variant | scaled log2 fold change [1] | scaled log2 fold change [2] |
| --- | --- | --- |
| A15D | 0.405 | 0.431 |
| A15E | 0.311 | -0.231 |
| A15F | -0.0557 | -0.87 |
| A15G | -0.419 | 0.437 |
| A15H | 0.0941 | -0.215 |
| A15I | -0.367 | -0.0209 |
| A15K | -0.22 | -0.495 |
| A15L | -0.153 | -0.301 |
| A15M | -0.0208 | 0.445 |
| A15N | -0.0399 | -0.856 |
| A15P | 0.172 | 0.337 |
| A15Q | 0.208 | 0.886 |
| A15S | 0.137 | 0.0336 |
| A15T | 0.322 | -0.179 |
| A15V | 0.02 | – |
| A15W | 0.0842 | -0.229 |
| A15Y | -0.822 | – |
| V16A | -0.668 | – |
| V16C | 0.174 | 0.501 |
| V16D | 0.0655 | -0.0447 |
| V16E | -0.716 | – |
| V16F | -0.9 | 0.654 |
| V16G | -0.0956 | 0.0318 |
| V16I | -0.31 | – |
| V16K | 0.121 | 0.118 |

| Variant | scaled log2 fold change [1] | scaled log2 fold change [2] |
| --- | --- | --- |
| V16L | 0.316 | -0.316 |
| V16M | 0.215 | 0.406 |
| V16N | -0.645 | -0.143 |
| V16P | -0.0976 | 0.175 |
| V16Q | 0.575 | – |
| V16R | -0.0133 | – |
| V16S | 0.228 | -0.117 |
| V16T | 0.119 | -0.636 |
| V16W | -0.405 | – |
| V16Y | 0.461 | 0.705 |
| L17A | -0.194 | – |
| L17C | 0.0553 | 0.966 |
| L17D | 0.342 | 0.653 |
| L17E | 0.227 | – |
| L17F | -0.361 | 0.252 |
| L17G | 0.217 | -0.178 |
| L17H | -0.27 | -0.167 |
| L17I | -0.552 | -0.833 |
| L17K | -0.392 | -0.386 |
| L17M | 0.05 | 0.0514 |
| L17N | 0.306 | – |
| L17P | -0.107 | – |
| L17Q | -0.0277 | -0.517 |
| L17R | -0.051 | 0.603 |
| L17S | 0.386 | 0.458 |

| Variant | scaled log2 fold change [1] | scaled log2 fold change [2] |
| --- | --- | --- |
| L17T | 0.262 | -0.223 |
| L17V | -0.232 | – |
| L17W | 0.321 | -0.126 |
| L17Y | -0.147 | 0.613 |
| G18A | -0.164 | 0.946 |
| G18C | 0.14 | 0.923 |
| G18D | -0.233 | 0.58 |
| G18E | -0.165 | -0.152 |
| G18F | 0.00932 | 0.79 |
| G18H | 0.0847 | -0.242 |
| G18I | 0.0859 | -0.0341 |
| G18K | 0.322 | 0.179 |
| G18L | -0.655 | 0.123 |
| G18M | 0.0948 | 0.156 |
| G18N | 0.408 | 0.649 |
| G18P | 0.0386 | – |
| G18Q | -0.43 | 0.977 |
| G18R | 0.241 | -0.618 |
| G18S | 0.392 | 0.921 |
| G18T | 0.225 | 0.0755 |
| G18V | 0.494 | -0.0846 |
| G18W | -0.00826 | -0.224 |
| G18Y | 0.0736 | 0.324 |
| G19A | -0.167 | -0.0193 |
| G19C | -0.0683 | -0.489 |

| Variant | scaled log2 fold change [1] | scaled log2 fold change [2] |
| --- | --- | --- |
| G19D | 0.233 | 0.874 |
| G19E | 0.246 | -0.028 |
| G19F | 0.0719 | 0.185 |
| G19H | 0.674 | – |
| G19I | 0.0203 | -0.0307 |
| G19K | -0.0528 | -0.256 |
| G19L | -0.367 | 0.0638 |
| G19M | -0.0059 | -0.191 |
| G19N | -0.0111 | 0.0883 |
| G19P | 0.54 | – |
| G19Q | 0.00839 | -0.000362 |
| G19R | 0.483 | 1.5 |
| G19S | 0.267 | 0.0205 |
| G19T | 0.117 | 0.837 |
| G19V | -0.0119 | 1.01 |
| G19W | 0.277 | -0.266 |
| G19Y | 0.187 | -0.867 |
| P20A | -0.601 | 0.0404 |
| P20C | 0.163 | -0.287 |
| P20D | -0.0903 | – |
| P20E | 0.162 | 1.08 |
| P20F | -0.201 | – |
| P20G | 0.37 | – |
| P20H | -0.216 | 0.0304 |
| P20I | 0.419 | 0.171 |

| Variant | scaled log2 fold change [1] | scaled log2 fold change [2] |
| --- | --- | --- |
| P20K | 0.251 | – |
| P20L | 0.585 | -0.772 |
| P20M | -0.56 | – |
| P20N | -0.129 | – |
| P20Q | -0.5 | 1.13 |
| P20S | -0.324 | – |
| P20T | 0.221 | – |
| P20W | -0.19 | -0.657 |
| P20Y | 0.0978 | 0.987 |
| A21C | -0.145 | -0.0664 |
| A21D | 0.168 | -0.0523 |
| A21E | -0.0483 | -0.444 |
| A21F | -0.268 | 0.113 |
| A21G | 0.106 | -0.283 |
| A21H | -0.455 | -0.00969 |
| A21I | 0.0825 | 0.0632 |
| A21K | -0.827 | – |
| A21L | 0.235 | 0.118 |
| A21M | -0.216 | -0.139 |
| A21N | -0.1 | -0.618 |
| A21P | 0.0803 | – |
| A21Q | -0.931 | 0.318 |
| A21R | -0.644 | -0.0217 |
| A21S | 0.463 | -0.189 |
